# Experimental data reported in the DeepSol protein solubility set.
# Experiment: soluble on expression in E. coli; label from the status in PepcDB or PDB records
row,Sequence,soluble on expression in E. coli
1,TTGNEPPVTQIVDKHRIALALGGGAARGWAHIGVLRALDEAGVKIGMIAGTSIGALVGGCYLAGKLDELEEFARSLTMRRIAGLLDLTIGGGGLFGGMRLTKRMQEHLEGLRVENLEHPFIAVATELRTGHEVWIHQGDLVTALRSSYALPGIFEPVQCNGRTLIDGALVNPVPVSVCRAYEQALVVAVNLNYDLFGRSA,not soluble
2,MSINKIEEDRDISSDLEMKAKMYLVHRMDKAGPLTVKDVRILINKLSKDLQKNQLTLIDCQLIINLVESRFTLVKQATRYLQFFLNKLDGKSINPILIPLSNKPFWQNEPHPFDHYRSTDQLPEKVDIVIIGAGLTGASTAYHLIDAVKKRHLTVVLLDKGNPATEASGRNGGNFELLPENSVGIYSGLVSERFRFLKRCYPHVHPSILQIESEYHASLVFQFALKNRNRFKEIARKERIYCDLAAKGWLYIAHTEEEEQAICDEVTLAAQHGERIYIWSRKKIREQFGINSKFIGRFIPDDGTYNPFKYTCCLIKAAIKSGIKLYTFVKVQQIKSIDTEYHQLKTNMGLLKARQVIVATNAFTSELLPELRAIKPHQSQIAITDSTPDYCKGRLITSEDGPLYLNQPRVRSKNGLVPLLIGAGDDRPMKNPYYRKRSKKVHDLIVQQRDKYFPNLKGRPFSTEWVGALAFTPDQLPAIGYLSPGIIIVMCCNGYGGSYTTAAGLAAAEIALTGKNPPWLPADVFSPKRLLSDKPLFWEDSDSLWRIGKTLCTTLNNLNQLLAESLSYQSMYQPYSTISLLPHGHQEKNCNLDPLRVMHQLAIFRTFAYQELEMLIRYTSPVCLSKGEILFKQGDAGHSCFILIQGKINLYYEHAEGFTSMVAELEAGSVFGQMALFLENKRMATCQATENCSMLEIMVEPCKSLFIQQQALGIKLLRLLNQGVIDALHKLNKRLKYT,not soluble
3,MDSQLSNRLAQVAAYVPKGVKLLDVGSDHAYLPIFLVETNQISAAIAGEVVRGPYESALKNVTQSGLAEHIQVRLANGLAAFEEADDVTAITICGMGGRLIADILEAGKEKLQGIERLVLQPNNREDDLRAWLSVNAFKIVAETIMAENDKYYEIIVAEHGEKALSATELRFGPYLSQEKSVVFKEKWQREMDKLAYALSCIPEEKTQERQLLLTKIQQIKEVIVHES,not soluble
4,MAPDRSGGPAAAELIAGLGLERHPEGGWYRETYRAAGTIPGTLLPGQVGGERSFSTAIYFLLERGDISALHRIRSDELWHFHAGAPLIVHVITPAGGSYALTLGSDPASGETFQAVVPAGCWFGAETTGDYSLVGCTVAPGFDFADFEMGSRADLLGRFPTHAGIIRRLTRDGDLEHHHHHH,not soluble
5,MGSDKIHHHHHHKEKSTVAVLPFTVHSADNIDYVKQGISDMLTSRIAVEGKISVASKDLVQEAIKGRTTRDLTPEEMNALGKKLNVDYIVSGSITKIGNSLSIDGKLMDLAAARSTVGIFAQTQGLDEVIPKINDFSQRIVQHITGSTPSDFSSPAMELPAPSSAAAVADKPPQRSRESEIISGMRTSRKGTFTSIINPDFIDAARPLDRKGFWMSQKFPTEFRGMAIGDVNGDKLQEVVVIDRSNLYVYQRKGDDFKLLQKIPGKTHDNYLAVDVADINQNGIMEIFVTNMNRNTLASFVTEWQDGKYIQTAKDLRLFLRVIEPSIAAPQLLGQGFGLDNPFNTPIHEVIWDGKHYRAATRMKIPEGLSVYGLTLDDLGMGGSEKVISLDDYDYIRIYQQTEKPLSRLNVFGGSDELIWKSDEVFGGSNTYVEHAGSTVPGDEVRRTYINLRILTYDINKDGKKELILVKNLSAVGRVLKNVKLFTSSEVYNLEWDGLGLLENWKTRKINGYVADYQFKDIDNDGQNEIVLALVLSTGATLQNRSAFVAYKLSPQQ,not soluble
6,MGSLVREWVGFQQFPAATQEKLIEFFGKLKQKDMNSMTVLVLGKGGVGKSSTVNSLIGEQVVRVSPFQAEGLRPVMVSRTMGGFTINIIDTPGLVEAGYVNHQALELIKGFLVNRTIDVLLYVDRLDVYAVDELDKQVVIAITQTFGKEIWCKTLLVLTHAQFSPPDELSYETFSSKRSDSLLKTIRAGSKMRKQEFEDSAIAVVYAENSGRCSKNDKDEKALPNGEAWIPNLVKAITDVATNQRKAIHVDAAALEHHHHHH,soluble
7,VGPEAYGEASHSHSPASGRYIQQMLDQRCQEIAAELCQSGLRKMCVPSSRIVARNAVGITHQNTLQWRCFDTASLLESNQENNGVNCVDDCGHTIPCPGGVHRQNSNHATRHEILSKLVEEGVQRFCSPYQASANKYCNDKFPGTIARRSKGFGNNVEVAWRCYEKASLLYSVYAECASNCGTTWYCPGGRRGTSTELDKRHYTEEEGIRQAIGSVDSPCSEVEVCLPKDENPPLCLDESGQISRT,soluble
8,MSLKITDVRAHQIRIPYDAGVASFRQGASAITALDMVIVEVTTDAGLTGWGDAFAYVCPRTTRSAVEEMIAPQARGLEVPDAAGIAAVMEQIQRNLHLFGRYGITMFAISGLDIALWDLAAKIKGVPVHRLLGETRRPAIPAYASLLRIGSPDNIAAECKKALALGYGAIKLHETTAPAVYAAREAIGPGVPLMVDMNCPLSGEQAIAFAGTCRDAQPMFLEEPVWPPEDFAALAEVRSKGGLGVAAGENACTEHQFRQMMNAGAVSHAQPSVIKVGGITEFLKVAALADRLGVKIVPHSPYFGPGLLATLHLLAGRDDGFVEMFYLKREACLWGGRADVDATGHVAVPTGLGLGYEPDRGVMERYRVAEGHHHHHH,not soluble
9,MAMTGVLRPGHAQVRVLNLEEGIHFYRNVLGLVETGRDDQGRVYFKCWDERDHSCYIIREADTAGIDFFGFKVLDKATLEKLDADLQAYGLTTTRIPAGEMLETGERVRFELPSGHLIELYAEKTCVGNGISEVNPAPWNAQREHGIAPIQLDHCLLYGPNIAEVQKIFTEVLGFYLVERVLSPDGDSDMGIWLSCSHKVHDIAFVEYPEKGKLHHCSFLLESWEQVLRAGDIMSMNEVNVDIGPTRHGVTRGCTIYAWDPSGNRFETFMGGYHPYPDYEPLSWTYDNFAQGLDYPQRKLHETFMTVVT,soluble
10,MDPLSWLYARQGRFAPGLERIRAFLARLGHPEEAYPVALVGGTNGKGTTARALAAILEEAGFRVGLYTSPHLVDFRERIQVQGRPIPEEKLLALLAELRPHAERLEASFFEVATALALLHFAREGVEFAVLEVGLGGRLDATNATEPVLSVVTNVGHDHLEVLGPTLKDVAREKAGIFRGGVPALTAARGEGLGVLRAEALGRKNPPWVLGEDFHAEGVEALPQGLAFTLRLERTGEALRLTARLLGPHQAENLALAALSGRLLGAGWEAVKRGVARAENPGRLQRLLWRGRELLLDGAHNPEGALALREALRFHGLLPAAFVLGFSRDKDHAAMAEALRGLGPVVLTRYASPRSEDPRALLPLFPGAKVVEDPLEALEEAFSREGRVVVAGSLYLVGEVLRRLEGLPAEERWQ,soluble
11,MTNGIFKHSNQSILEDQDHVKKSTVEILMPAYVIGGPIRSIRVDKDRLFVLGMKNHPEVIDLTQMSHGTSLILEKIMSGNRYYTTQISMNQAAELCHVAHELKLVNLLKLVEMDMIRRPSTSMKHAVDALVLALKFGMLEAVNKLIDEIIFEFFNGLGLVGYCKSSTALEMIFDKNEMMLKEEIEVGRLNSEWNEPLPVGQEVVPSLPRGNNAQIPRIMLNVAKERIRSLVARPINSVKNGFAWISAQNLRRRGPRNHQDFPNFPD,not soluble
12,MFSEELEKIDWEETTKTIYSKTESDVLRALGKEHCDVDDFMALISPAAAKYLEPMAQLSKKYTEERFGKTISMFIPLYITNSCTNSCVYCGFHISNPMARTILTPEQIEDEYKAIKKLGPFENLLLVTGENPAKAGVPYLAKALDIAKKYFSNLKIEVMPLKAEEYAELKEHGLNGVICFQETYNKARYNIYHPRGMKSKFEWRVNGFDRMGQAGVHSIGMGVLIGLEEWRTDVTMMAYHLRYLQKKYWKTKYSVNFPRMRPAENGGFQPNVIMNDRELAQLTFAMRIFDHDVDISYSTREPAQIRDNMAGLGVTTMSAESKTEPGGYYTYPQALEQFHVSDERTAVEVEHALKSLGREPVWKDWDVSFDKFTPIR,not soluble
13,GMIKIAIVGFGTVGQGVAELLIRKREEIEKAIGEFKVTAVADSKSSISGDFSLVEALRMKRETGMLRDDAKAIEVVRSADYDVLIEASVTRVDGGEGVNYIREALKRGKHVVTSNKGPLVAEFHGLMSLAERNGVRLMYEATVGGAMPVVKLAKRYLALCEIESVKGIFNGTCNYILSRMEEERLPYEHILKEAQELGYAEADPSYDVEGIDAALKLVIIANTIGVKASYEDVEVTGITQITPEAFQVAAEKGYTIRLIAEVSREKLKVSPRLVPFHHPLAIKGTMNAAMFKTDTAGSIFVAGRGAGKEETASAILSDLYEIYAGPR,soluble
